{"source": "patent US20220154204", "key": {"[1]": {"biological_target": "T1, dephosphorylated recombinant His-OST1/SnRK2.6 (UniProt Q940H6)", "T1 sequence": "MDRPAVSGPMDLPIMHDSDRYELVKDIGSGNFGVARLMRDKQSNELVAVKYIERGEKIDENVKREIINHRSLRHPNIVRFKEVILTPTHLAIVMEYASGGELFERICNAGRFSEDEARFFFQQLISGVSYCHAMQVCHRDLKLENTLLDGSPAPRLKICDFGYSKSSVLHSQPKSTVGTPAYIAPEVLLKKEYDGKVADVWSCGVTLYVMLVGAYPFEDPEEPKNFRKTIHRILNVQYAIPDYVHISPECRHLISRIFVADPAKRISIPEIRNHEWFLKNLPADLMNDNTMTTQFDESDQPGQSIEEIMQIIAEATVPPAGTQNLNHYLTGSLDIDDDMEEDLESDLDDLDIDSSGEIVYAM"}, "[2]": {"biological_target": "GST-OST1/SnRK2.6 (D140A) (UniProt Q940H6)"}, "[3]": {"biological_target": "T2, GST-SnRK2.3 (UniProt Q39193)", "T2 sequence": "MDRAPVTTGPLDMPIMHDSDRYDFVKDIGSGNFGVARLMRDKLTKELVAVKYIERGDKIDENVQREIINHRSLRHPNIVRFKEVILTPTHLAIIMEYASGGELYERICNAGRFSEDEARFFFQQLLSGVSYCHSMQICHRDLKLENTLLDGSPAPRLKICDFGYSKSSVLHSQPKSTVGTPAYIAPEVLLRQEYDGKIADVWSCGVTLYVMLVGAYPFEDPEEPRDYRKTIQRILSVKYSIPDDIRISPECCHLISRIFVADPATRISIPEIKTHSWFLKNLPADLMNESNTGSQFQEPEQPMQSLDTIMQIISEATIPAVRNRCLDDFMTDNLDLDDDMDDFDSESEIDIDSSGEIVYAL"}, "[4]": {"biological_target": "GST-OST1/SnRK2.6 (UniProt Q940H6)"}, "[5]": {"biological_target": "T3, GST-SnRK2.2 (UniProt Q39192)", "T3 sequence": "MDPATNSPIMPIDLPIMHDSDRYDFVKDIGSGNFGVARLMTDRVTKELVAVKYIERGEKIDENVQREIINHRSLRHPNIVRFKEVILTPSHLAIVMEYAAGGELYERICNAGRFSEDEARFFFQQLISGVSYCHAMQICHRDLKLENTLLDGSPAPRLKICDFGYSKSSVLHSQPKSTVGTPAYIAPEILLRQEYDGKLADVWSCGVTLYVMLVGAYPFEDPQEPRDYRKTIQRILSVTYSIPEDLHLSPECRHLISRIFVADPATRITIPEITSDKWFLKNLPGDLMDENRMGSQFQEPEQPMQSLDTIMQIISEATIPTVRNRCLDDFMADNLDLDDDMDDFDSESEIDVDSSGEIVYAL"}, "[6]": {"biological_target": "T4, GST-SnRK2.4 (UniProt P43291)", "T4 sequence": "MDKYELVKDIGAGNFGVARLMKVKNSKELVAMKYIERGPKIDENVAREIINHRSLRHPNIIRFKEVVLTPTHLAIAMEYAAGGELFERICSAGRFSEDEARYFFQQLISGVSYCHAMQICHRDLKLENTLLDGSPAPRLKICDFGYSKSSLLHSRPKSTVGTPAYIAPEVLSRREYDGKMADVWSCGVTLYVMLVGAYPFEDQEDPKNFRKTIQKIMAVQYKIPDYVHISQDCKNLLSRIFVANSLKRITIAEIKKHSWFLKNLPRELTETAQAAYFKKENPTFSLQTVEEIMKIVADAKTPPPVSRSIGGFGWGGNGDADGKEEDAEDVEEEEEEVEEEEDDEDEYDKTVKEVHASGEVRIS"}}}
{"substance": "GST-M3Kδ7 kinase domain", "values": [{"measurement": "OST1/SnRK2.6 activity, in-gel kinase assay in vitro", "setting": "[1]", "value": "three M3Ks from the subgroup B3, named M3Kδ1, 66 and 67, were found to strongly activate OST1/SnRK2.6"}, {"measurement": "in vitro phosphorylation assay with 32P-ATP", "setting": "[2]", "value": "the M3Kδ1, 66 and 67 kinase domains directly phosphorylated the kinase inactive OST1/SnRK2.6 (D140A) mutant isoform"}, {"measurement": "SnRK2 kinase activity, in-gel kinase assay in vitro", "setting": "[3]", "value": "SnRK2.3 was also activated by M3Kδ6 and M3Kδ7"}]}
{"substance": "CPK6", "values": [{"measurement": "in vitro phosphorylation assay with 32P-ATP after dephosphorylation of OST1", "setting": "[4]", "value": "did not phosphorylate OST1/SnRK2.6 after dephosphorylation"}]}
{"substance": "M3Kδ6 kinase domain mutant (K775W)", "values": [{"measurement": "OST1/SnRK2.6 activity, in-gel kinase assay in vitro", "setting": "[1]", "value": "OST1/SnRK2 kinase activation was not induced by an inactive mutant M3K kinase protein, M3Kδ6 (K775W)"}]}
{"substance": "GST-M3Kδ6 kinase domain", "values": [{"measurement": "OST1/SnRK2.6 activity, in-gel kinase assay in vitro", "setting": "[1]", "value": "three M3Ks from the subgroup B3, named M3Kδ1, 66 and 67, were found to strongly activate OST1/SnRK2.6"}, {"measurement": "in vitro phosphorylation assay with 32P-ATP", "setting": "[2]", "value": "the M3Kδ1, 66 and 67 kinase domains directly phosphorylated the kinase inactive OST1/SnRK2.6 (D140A) mutant isoform"}, {"measurement": "SnRK2 kinase activity, in-gel kinase assay in vitro", "setting": "[3]", "value": "SnRK2.3 was also activated by M3Kδ6 and M3Kδ7"}]}
{"substance": "CPK23", "values": [{"measurement": "in vitro phosphorylation assay with 32P-ATP after dephosphorylation of OST1", "setting": "[4]", "value": "did not phosphorylate OST1/SnRK2.6 after dephosphorylation"}]}
{"substance": "GST-M3Kδ1 kinase domain", "values": [{"measurement": "SnRK2 kinase activity, in-gel kinase assay in vitro", "setting": "[5]", "value": "M3Kδ1 strongly activated SnRK2.2 and 2.3"}, {"measurement": "OST1/SnRK2.6 activity, in-gel kinase assay in vitro", "setting": "[4]", "value": "the truncated kinase domain (M3Kδ1_KD) has a higher activity than the full length M3Kδ1 protein (M3Kδ1_Full)"}, {"measurement": "OST1/SnRK2.6 activity, in-gel kinase assay in vitro", "setting": "[1]", "value": "three M3Ks from the subgroup B3, named M3Kδ1, 66 and 67, were found to strongly activate OST1/SnRK2.6"}, {"measurement": "in vitro phosphorylation assay with 32P-ATP", "setting": "[2]", "value": "the M3Kδ1, 66 and 67 kinase domains directly phosphorylated the kinase inactive OST1/SnRK2.6 (D140A) mutant isoform"}, {"measurement": "phosphorylation sites by LC-MS/MS after in vitro phosphorylation", "setting": "[2]", "value": "M3Kδ1 phosphorylated the OST1/SnRK2.6 residues Ser171, Ser175 and Thr176 in the OST1 activation loop"}, {"measurement": "SnRK2 kinase activity, in-gel kinase assay in vitro", "setting": "[3]", "value": "M3Kδ1 strongly activated SnRK2.2 and 2.3"}, {"measurement": "SnRK2 kinase activity, in-gel kinase assay in vitro", "setting": "[6]", "value": "M3Kδ1 also activated SnRK2.4 kinase in vitro"}]}
{"substance": "full-length His-M3Kδ1", "values": [{"measurement": "OST1/SnRK2.6 activity, in-gel kinase assay in vitro", "setting": "[4]", "value": "Full-length M3Kδ1 activates OST1/SnRK2.6 in vitro"}]}
